The values that follow come from patent publication US20260209386A1 (MYTHIC THERAPEUTICS, published 2026).

The target of the assay is T1, Human PTK7/CCK4 Protein, His Tag, Acro Biosystems PT7-H52H3 (human, UniProt Q13308 31-704).
T1 construct: bought protein; also called Human PTK7 Protein, His Tag, Acro Biosystems; not shown: His tag
T1 sequence: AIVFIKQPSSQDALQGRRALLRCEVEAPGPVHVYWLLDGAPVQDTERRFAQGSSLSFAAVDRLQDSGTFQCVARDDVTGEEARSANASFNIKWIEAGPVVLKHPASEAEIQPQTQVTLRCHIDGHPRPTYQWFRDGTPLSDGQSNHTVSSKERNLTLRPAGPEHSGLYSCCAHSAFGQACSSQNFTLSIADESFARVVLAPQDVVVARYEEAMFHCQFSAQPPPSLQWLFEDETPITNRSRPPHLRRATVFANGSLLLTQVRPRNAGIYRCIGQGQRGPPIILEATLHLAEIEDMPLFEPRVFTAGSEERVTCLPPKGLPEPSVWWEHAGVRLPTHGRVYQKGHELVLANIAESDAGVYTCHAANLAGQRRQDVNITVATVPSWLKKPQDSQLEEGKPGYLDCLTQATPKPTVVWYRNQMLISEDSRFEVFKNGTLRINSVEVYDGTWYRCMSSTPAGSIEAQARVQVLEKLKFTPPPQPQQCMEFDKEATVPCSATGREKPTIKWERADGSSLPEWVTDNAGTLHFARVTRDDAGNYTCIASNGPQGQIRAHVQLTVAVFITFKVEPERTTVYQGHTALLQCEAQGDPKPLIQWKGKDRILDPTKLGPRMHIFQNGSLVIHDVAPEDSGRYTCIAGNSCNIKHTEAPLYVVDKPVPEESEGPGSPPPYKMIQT
The assay is described as follows: BLI, antibody on anti-human Fc sensor, 50 nM PTK7. Background: BLI is a label-free optical method that tracks binding on a fibre tip over time.

B1: MYT10888 (antibody, V domains shown)
VH: EVQLVESGGGLVQPGGSLRLSCTASGFSHSNYVMNWVRQAPGKGLEWVGIIDSSGSTYYASWAKGRFTISRDTSKNTVYLQMNSLRAEDTAVYFCARGLYLWGQGTLVTVSS
VL: EIVMTQSPSTLSASVGDRVIITCQSSQSVYNNNLLAWYQQKPGKAPKLLIYYTSNLASGVPSRFSGSGSGAEFTLTISSLQPDDFATYYCQGGYNGNIYAFGQGTKLTVL
notes: IgG
For the molecule B1, the binding result was “binds”.

B2: MYT10930 (antibody, V domains shown)
VH: EVQLVESGGGLVQPGGSLRLSCTASGFSLSNYVMNWVRQAPGKGLEWVGIIDSSGSTYYASWAKGRFTISRDTSKNTVYLQMNSLRAEDTAVYFCARGLYLWGQGTLVTVSS
VL: EIVMTQSPSTLSASVGDRVIITCQSSQSVYNNNLHAWYQQKPGKAPKLLIYYTSNLASGVPSRFSGSGSGAEFTLTISSLQPDDFATYYCQGGYNGNIYAFGQGTKLTVL
notes: IgG
For B2, the binding result is “binds”.

B3: MYT10927 (antibody, V domains shown)
VH: EVQLVESGGGLVQPGGSLRLSCTASGFSLSNYVMNWVRQAPGKGLEWVGIIDSSGSTYYASWAKGRFTISRDTSKNTVYLQMNSLRAEDTAVYFCARGLYLWGQGTLVTVSS
VL: EIVMTQSPSTLSASVGDRVIITCQSSQSVYNHNLLAWYQQKPGKAPKLLIYYTSNLASGVPSRFSGSGSGAEFTLTISSLQPDDFATYYCQGGYNGNIYAFGQGTKLTVL
notes: IgG
With B3, the binding result is on record as “binds”.

B4: MYT10926 (antibody, V domains shown)
VH: EVQLVESGGGLVQPGGSLRLSCTASGFSLSNYVMNWVRQAPGKGLEWVGIIDSSGSTYYASWAKGRFTISRDTSKNTVYLQMNSLRAEDTAVYFCARGLYLWGQGTLVTVSS
VL: EIVMTQSPSTLSASVGDRVIITCQSSQSVYHNNLLAWYQQKPGKAPKLLIYYTSNLASGVPSRFSGSGSGAEFTLTISSLQPDDFATYYCQGGYNGNIYAFGQGTKLTVL
notes: IgG
With B4, the binding result was “binds”.

B5: MYT10903 (antibody, V domains shown)
VH: EVQLVESGGGLVQPGGSLRLSCTASGFSLSNYVMNWVRQAPGKGLEWVGIIDSSGSTHYASWAKGRFTISRDTSKNTVYLQMNSLRAEDTAVYFCARGLYLWGQGTLVTVSS
VL: EIVMTQSPSTLSASVGDRVIITCQSSQSVYNNNLLAWYQQKPGKAPKLLIYYTSNLASGVPSRFSGSGSGAEFTLTISSLQPDDFATYYCQGGYNGNIYAFGQGTKLTVL
notes: IgG
In the case of B5, the binding result is “binds”.

B6: MYT10925 (antibody, V domains shown)
VH: EVQLVESGGGLVQPGGSLRLSCTASGFSLSNYVMNWVRQAPGKGLEWVGIIDSSGSTYYASWAKGRFTISRDTSKNTVYLQMNSLRAEDTAVYFCARGLYLWGQGTLVTVSS
VL: EIVMTQSPSTLSASVGDRVIITCQSSQSVHNNNLLAWYQQKPGKAPKLLIYYTSNLASGVPSRFSGSGSGAEFTLTISSLQPDDFATYYCQGGYNGNIYAFGQGTKLTVL
notes: IgG
B6: the binding result was “binds”.

B7: MYT10920 (antibody, V domains shown)
VH: EVQLVESGGGLVQPGGSLRLSCTASGFSLSNYVMNWVRQAPGKGLEWVGIIDSSGSTYYASWAKGRFTISRDTSKNTVYLQMNSLRAEDTAVYFCARGLYLWGQGTLVTVSS
VL: EIVMTQSPSTLSASVGDRVIITCQHSQSVYNNNLLAWYQQKPGKAPKLLIYYTSNLASGVPSRFSGSGSGAEFTLTISSLQPDDFATYYCQGGYNGNIYAFGQGTKLTVL
notes: IgG
As to B7, the binding result is recorded as “binds”.

B8: MYT10935 (antibody, V domains shown)
VH: EVQLVESGGGLVQPGGSLRLSCTASGFSLSNYVMNWVRQAPGKGLEWVGIIDSSGSTYYASWAKGRFTISRDTSKNTVYLQMNSLRAEDTAVYFCARGLYLWGQGTLVTVSS
VL: EIVMTQSPSTLSASVGDRVIITCQSSQSVYNNNLLAWYQQKPGKAPKLLIYYTSHLASGVPSRFSGSGSGAEFTLTISSLQPDDFATYYCQGGYNGNIYAFGQGTKLTVL
notes: IgG
In the case of B8, the binding result was “binds”.

B9: MYT10895 (antibody, V domains shown)
VH: EVQLVESGGGLVQPGGSLRLSCTASGFSLSNYVMNWVRQAPGKGLEWVGHIDSSGSTYYASWAKGRFTISRDTSKNTVYLQMNSLRAEDTAVYFCARGLYLWGQGTLVTVSS
VL: EIVMTQSPSTLSASVGDRVIITCQSSQSVYNNNLLAWYQQKPGKAPKLLIYYTSNLASGVPSRFSGSGSGAEFTLTISSLQPDDFATYYCQGGYNGNIYAFGQGTKLTVL
notes: IgG
Take B9: the binding result is recorded as “binds”.

B10: MYT10898 (antibody, V domains shown)
VH: EVQLVESGGGLVQPGGSLRLSCTASGFSLSNYVMNWVRQAPGKGLEWVGIIDHSGSTYYASWAKGRFTISRDTSKNTVYLQMNSLRAEDTAVYFCARGLYLWGQGTLVTVSS
VL: EIVMTQSPSTLSASVGDRVIITCQSSQSVYNNNLLAWYQQKPGKAPKLLIYYTSNLASGVPSRFSGSGSGAEFTLTISSLQPDDFATYYCQGGYNGNIYAFGQGTKLTVL
notes: IgG
B10: the binding result is “binds”.

B11: MYT10911 (antibody, V domains shown)
VH: EVQLVESGGGLVQPGGSLRLSCTASGFSLSNYVMNWVRQAPGKGLEWVGIIDSSGSTYYASWAKGRFTISRDTSKNTVYLQMNSLRAEDTAVYFCHRGLYLWGQGTLVTVSS
VL: EIVMTQSPSTLSASVGDRVIITCQSSQSVYNNNLLAWYQQKPGKAPKLLIYYTSNLASGVPSRFSGSGSGAEFTLTISSLQPDDFATYYCQGGYNGNIYAFGQGTKLTVL
notes: IgG
B11: the binding result is listed as “binds”.

B12: MYT10905 (antibody, V domains shown)
VH: EVQLVESGGGLVQPGGSLRLSCTASGFSLSNYVMNWVRQAPGKGLEWVGIIDSSGSTYYHSWAKGRFTISRDTSKNTVYLQMNSLRAEDTAVYFCARGLYLWGQGTLVTVSS
VL: EIVMTQSPSTLSASVGDRVIITCQSSQSVYNNNLLAWYQQKPGKAPKLLIYYTSNLASGVPSRFSGSGSGAEFTLTISSLQPDDFATYYCQGGYNGNIYAFGQGTKLTVL
notes: IgG
As to B12, the binding result is reported as “binds”.

B13: MYT10896 (antibody, V domains shown)
VH: EVQLVESGGGLVQPGGSLRLSCTASGFSLSNYVMNWVRQAPGKGLEWVGIHDSSGSTYYASWAKGRFTISRDTSKNTVYLQMNSLRAEDTAVYFCARGLYLWGQGTLVTVSS
VL: EIVMTQSPSTLSASVGDRVIITCQSSQSVYNNNLLAWYQQKPGKAPKLLIYYTSNLASGVPSRFSGSGSGAEFTLTISSLQPDDFATYYCQGGYNGNIYAFGQGTKLTVL
notes: IgG
Take B13: the binding result is given as “binds”.

B14: MYT10897 (antibody, V domains shown)
VH: EVQLVESGGGLVQPGGSLRLSCTASGFSLSNYVMNWVRQAPGKGLEWVGIIHSSGSTYYASWAKGRFTISRDTSKNTVYLQMNSLRAEDTAVYFCARGLYLWGQGTLVTVSS
VL: EIVMTQSPSTLSASVGDRVIITCQSSQSVYNNNLLAWYQQKPGKAPKLLIYYTSNLASGVPSRFSGSGSGAEFTLTISSLQPDDFATYYCQGGYNGNIYAFGQGTKLTVL
notes: IgG
As to B14, the binding result is recorded as “binds”.

B15: MYT10891 (antibody, V domains shown)
VH: EVQLVESGGGLVQPGGSLRLSCTASGFSLSNHVMNWVRQAPGKGLEWVGIIDSSGSTYYASWAKGRFTISRDTSKNTVYLQMNSLRAEDTAVYFCARGLYLWGQGTLVTVSS
VL: EIVMTQSPSTLSASVGDRVIITCQSSQSVYNNNLLAWYQQKPGKAPKLLIYYTSNLASGVPSRFSGSGSGAEFTLTISSLQPDDFATYYCQGGYNGNIYAFGQGTKLTVL
notes: IgG
With B15, the binding result is “binds”.

B16: MYT10936 (antibody, V domains shown)
VH: EVQLVESGGGLVQPGGSLRLSCTASGFSLSNYVMNWVRQAPGKGLEWVGIIDSSGSTYYASWAKGRFTISRDTSKNTVYLQMNSLRAEDTAVYFCARGLYLWGQGTLVTVSS
VL: EIVMTQSPSTLSASVGDRVIITCQSSQSVYNNNLLAWYQQKPGKAPKLLIYYTSNHASGVPSRFSGSGSGAEFTLTISSLQPDDFATYYCQGGYNGNIYAFGQGTKLTVL
notes: IgG
On to B16, for which the binding result is on record as “binds”.

B17: MYT10916 (antibody, V domains shown)
VH: EVQLVESGGGLVQPGGSLRLSCTASGFSLSNYVMNWVRQAPGKGLEWVGIIDSSGSTYYASWAKGRFTISRDTSKNTVYLQMNSLRAEDTAVYFCARGLYHWGQGTLVTVSS
VL: EIVMTQSPSTLSASVGDRVIITCQSSQSVYNNNLLAWYQQKPGKAPKLLIYYTSNLASGVPSRFSGSGSGAEFTLTISSLQPDDFATYYCQGGYNGNIYAFGQGTKLTVL
notes: IgG
As for B17, the binding result is listed as “binds”.

B18: MYT10889 (antibody, V domains shown)
VH: EVQLVESGGGLVQPGGSLRLSCTASGFSLHNYVMNWVRQAPGKGLEWVGIIDSSGSTYYASWAKGRFTISRDTSKNTVYLQMNSLRAEDTAVYFCARGLYLWGQGTLVTVSS
VL: EIVMTQSPSTLSASVGDRVIITCQSSQSVYNNNLLAWYQQKPGKAPKLLIYYTSNLASGVPSRFSGSGSGAEFTLTISSLQPDDFATYYCQGGYNGNIYAFGQGTKLTVL
notes: IgG
As to B18, the binding result is given as “binds”.

B19: MYT10928 (antibody, V domains shown)
VH: EVQLVESGGGLVQPGGSLRLSCTASGFSLSNYVMNWVRQAPGKGLEWVGIIDSSGSTYYASWAKGRFTISRDTSKNTVYLQMNSLRAEDTAVYFCARGLYLWGQGTLVTVSS
VL: EIVMTQSPSTLSASVGDRVIITCQSSQSVYNNHLLAWYQQKPGKAPKLLIYYTSNLASGVPSRFSGSGSGAEFTLTISSLQPDDFATYYCQGGYNGNIYAFGQGTKLTVL
notes: IgG
Regarding B19, the binding result was “binds”.
